Laboratory results as given in patent publication US20250179160A1 (OMEROS, published 2025).
Where two headings read alike, the source gives them in different places.

Columns and labels:
[1] = target: T1, recombinant human mature Factor D-His (human, UniProt P00746 26-253); assay: ELISA: antibody titrated from 3 ug/ml on 1 ug/ml plate-immobilized His-tagged Factor D; labeled goat anti-mouse IgG Fc; OD450
T1 construct: also called recombinant human mature CFD-His; not shown: His tag

[2] = target: T2, recombinant human Pro-Factor D-His (human, UniProt P00746 20-253); assay: as above
T2 construct: also called recombinant human Pro-CFD-His; not shown: His tag

[3] = target: T3, recombinant human mature Factor D, Strep tagged (human, UniProt P00746 26-253); assay: ELISA with hybridoma supernatant on immobilized antigen
T3 construct: also called recombinant human mature CFD-Strep tagged; recombinant human mature Factor D-Streptavidin; not shown: Strep tag

[4] = target: T4, recombinant human Pro-Factor D (human, UniProt P00746 20-253); assay: ELISA: antibody titrated 3-fold from 3 ug/ml on plate coated with 1 ug/ml recombinant human pro-Factor D; HRP anti-mouse, rat or human secondary; OD450
T4 construct: also used for the endogenous pro-Factor D detected in 3MC patient serum; also called pro CFD; hPro-CFD

[5] = target: T5, recombinant human mature Factor D (human, UniProt P00746 26-253); assay: ELISA: antibody titrated 3-fold from 3 ug/ml on plate coated with 1 ug/ml recombinant human mature Factor D; HRP anti-mouse, rat or human secondary; OD450
T5 construct: also called mature CFD; hCFD

[6] = target: T4, recombinant human Pro-Factor D; assay: sandwich ELISA: coat 21H1 (human IgG4) 1 ug/ml, recombinant human pro-Factor D spiked into diluent and titrated, detection biotin goat polyclonal BAF1824 and HRP-streptavidin; OD450
Protocol: Controls of no additional Factor D in sera were treated similarly (unspiked). Assay wells were incubated for 1 hour at room temperature then washed three times with PBST. […] After incubation and washing, HRP-tagged Streptavidin was added, incubated, and washed, followed by TMB substrate.

[7] = target: T1, recombinant human mature Factor D-His; assay: ELISA: antibody titrated from 3 ug/ml on 1 ug/ml plate-immobilized His-tagged Factor D; labeled goat anti-mouse IgG Fc; OD450; remark: listed apart in the source
Protocol: (§1) The candidate antibodies were titrated starting at 3 μg/mL antibody binding to 1 μg/mL plate-immobilized recombinant human mature Factor D-His or recombinant human Pro-Factor D-His proteins. Bound antibodies were detected by a labeled goat polyclonal antibody specific for mouse IgG Fc (Jackson ImmunoResearch).

[8] = target: T2, recombinant human Pro-Factor D-His; assay: as above; remark: listed apart in the source
Protocol: as §1

[9] = target: T5, recombinant human mature Factor D; assay: sandwich ELISA: coat 3C5 (human IgG4), sample titrated (ug/ml Df), detection 14A11 (mouse IgG2a), HRP donkey anti-mouse IgG; OD450
Description: (§2) An HRP-labeled F(ab′)₂ fragment donkey anti-mouse IgG H&L antibody (Jackson ImmunoResearch) was used to signal the detection antibody, followed by development with TMB substrate (ThermoFisher).

[10] = target: T5, recombinant human mature Factor D; assay: sandwich ELISA: coat 12H10 (human IgG4), sample titrated (ug/ml Df), detection 14A11 (mouse IgG2a), HRP donkey anti-mouse IgG; OD450
Description: as §2

[11] = target: T6, recombinant cynomolgus mature Factor D (cynomolgus monkey); assay: as above
T6 construct: mature; not tied by words to this reagent; also called cy Mat CFD; cynomolgus recombinant mature Factor D
Description: as §2

[12] = target: T5, recombinant human mature Factor D; assay: sandwich ELISA: coat 3C5 (human IgG4) 3 ug/mL, sample in 3-fold dilutions (ug/ml Df), detection 14A11 (mouse IgG2a) 3 ug/mL, HRP donkey anti-mouse IgG; OD450
Protocol: as §2
(§3) Wells were then washed three times. […] The plates were washed three times. 100 μL of Horseradish Peroxidase labeled F(ab′)2 Fragment Donkey anti-Mouse IgG H&L antibody (Jackson ImmunoResearch), diluted 1:30,000, was added to each well and incubated for one hour at room temperature. Wells were then washed three times.

[13] = target: T6, recombinant cynomolgus mature Factor D; assay: as above
Protocol: as §2, §3

[14] = target: T7, purified (from human plasma) human Factor D (human, UniProt P00746 26-253); assay: as above
T7 construct: also called hu purif; CFD; purified human complement factor D (Complement Technologies)
Protocol: as §2, §3

[15] = target: T6, recombinant cynomolgus mature Factor D; assay: sandwich ELISA standard curve: coat 3C5 (human IgG4) 3 ug/mL, recombinant cynomolgus mature Factor D titrated, detection 14A11 3 ug/mL, HRP donkey anti-mouse IgG; OD450
Description: After washing, an HRP-labeled secondary antibody (HRP-labeled F(ab′)2 Fragment Donkey anti-Mouse IgG H&L antibody (Jackson ImmunoResearch)) was used to signal the detection antibody, followed by development with TMB (ThermoFisher). Samples were interpolated from a 4-parameter logistics curve of cynomolgus recombinant mature Factor D dilutions.

B1: 3C5, recombinant purified, mouse IgG2a Fc (antibody)
heavy: EVKLVESGGGLVQPGGSLKLSCATSGFTFSDYGMAWVRQAPGKGPEWVAFISNLAYSFYYVDIVMGRFTISRENAKNTLYLEMSSLRSEDTAMYYCARVGLYGNFFMDYWGQGTSVTVSSAKTTAPSVYPLAPVCGDTTGSSVTLGCLVKGYFPEPVTLTWNSGSLSSGVHTFPAVLQSDLYTLSSSVTVTSSTWPSQSITCNVAHPASSTKVDKKIEPRGPTIKPCPPCKCPAPNLLGGPSVFIFPPKIKDVLMISLSPIVTCVVVDVSEDDPDVQISWFVNNVEVHTAQTQTHREDYNSTLRVVSALPIQHQDWMSGKEFKCKVNNKDLPAPIERTISKPKGSVRAPQVYVLPPPEEEMTKKQVTLTCMVTDFMPEDIYVEWTNNGKTELNYKNTEPVLDSDGSYFMYSKLRVEKKNWVERNSYSCSVVHEGLHNHHTTKSFSRTPGK
light: DIQMNQSPSSLSASLGDTITITCHASQNINVWLSWYQQKPGNIPELLIYKASNLHTGVPSRFSGNRSGTSFTLTISSLQPEDIGTYFCQQGQSYPLTFGAGTKLELRRADAAPTVSIFPPSSEQLTSGGASVVCFLNNFYPKDINVKWKIDGSERQNGVLNSWTDQDSKDSTYSMSSTLTLTKDEYERHNSYTCEATHKTSTSPIVKSFNRNEC
notes: Mouse IgG2a and mouse kappa constant regions
EC50 (read off the curve) [1]: ~0.06 µg/mL | EC50 (read off the curve) [2]: ~0.04 µg/mL

B2: 11H1, hybridoma supernatant (antibody, V domains shown)
VH: EVQLVESGGGLVQPKGSLKLSCAASGFSFNTYAMNWVRQAPGKGLEWVARIRSKSNNYATHYADSVKDRFTISRDDSESMLYLQMNNLKTEDTAMYYCVRQGYYWYFDVWGTGTTVTVSS
VL: DVLMTQTPLSLPVSLGDQASISCRSSQSIVHSNGNTYLEWYLQKPGQSPKLLIYTVSNRFSGVPDRFSGSGSGTDFTLKISRVEAEDLGVYYCFQGSHVPWTFGGGTKLEIKR
notes: Mouse hybridoma antibody
binding result [3]: binds

B3: 7H2, hybridoma supernatant (antibody, V domains shown)
VH: EVQVVESGGGLVRPKGSLKLSCAASGFSFNTYAMNWVRQAPGKGLEWVARIRSKSNNYATYYADSVKDRFTISRDDSESMLSLQMNNLKTEDTAMYYCVRQGYYWYFDVWGTGTTVTVSS
VL: DVLMTQTPLSLPVSLGDQASISCRSSQSIVHSNGNTYLEWYLQKPGQSPKLLIYTVSNRFSGVPDRFRGSGSGTDFTLKISRVEAEDLGVYYCFQGSHVPWTFGGGTKLEIKR
notes: Mouse hybridoma antibody
binding result [3]: binds

B4: 18F5, purified recombinant, human IgG4 (antibody, V domains shown)
VH: EVKLEESGGGLVQPGGSMKLSCVASGFTFGNYWMSWVRQSPEKGLEWVAEIRLKSDNYATHYAESVKGKFTISRDDSKSRLYLQMNSLRGEDTGLYYCTNAWFASWGQGTLVTVSA
VL: DIVMSQSPSSLAVSVGEKVTMSCMSSQSLLYSKDQKNYLAWYQQKPGQSPKLLIYWASTRESGVPDRFTGSGSGTDFTLTISSVKAEDLAVYYCLQYYTYPYTFGGGTKLEIKR
notes: Mouse variable regions on human IgG4 (S228P) and human kappa constant regions
EC50 (read off the curve) [4]: ~0.03 µg/mL | binding result [5]: no binding (tested: 3 ug/ml)

B5: 2A4, purified recombinant, human IgG4 (antibody, V domains shown)
VH: EVKLEESGGGLVQPGGSMKLSCVASGFTFSTYWMSWVRQSPEKGLEWVAEIRLKSDNYATHYTESVKGKFTISRDDSKSRLYLQMNSLRVEDTGIYYCTNAWFAYWGQGTLVTVSA
VL: DIVMSQSPSSLAVSVGEKFTMSCKSSQSLLYSRDQKNYLAWYQQQPGQSPKLLIYWASTRESGVPDRFTGSGSGTDFTLTISSVKTEDLAVYYCLQYYSYPYTFGGGTKLEIKR
notes: as for B4
EC50 (read off the curve) [4]: ~0.03 µg/mL | binding result [5]: no binding (tested: 3 ug/ml)

B6: 21H1, purified recombinant, human IgG4 Fc (antibody, V domains shown)
VH: DVQLQESGPGLVKPSQSLSLTCTVTGYSITSDYAWNWIRQFPGNKLEWMGYISYSGSTGYSPSLKSRISITRDTSKNQFFLHLNSVTTGDTATYYCARNGAMDYWGQGISVTVSS
VL: DIVLTQSPASLAVSLGQRATISCKASQSVDYDGDSYMNWYQQKPGQPPKLLIYDASTLESGIPARFSGSGSGTDFTLNIHPVEEEDAATYYCQQNYEAPWTFGGGTKLEIKR
notes: Mouse variable regions on human IgG4 (S228P) and human kappa constant regions; also called mAb 21H1; anti-pro Factor D-specific antibody 21H1
EC50 (read off the curve) [4]: ~0.02 µg/mL | binding result [5]: no binding (tested: 3 ug/ml) | EC50 (read off the curve) [6]: ~0.004 µg/mL

B7: 13A10, purified recombinant, human IgG4 (antibody, V domains shown)
VH: DVQLQESGPGLVKPSQSLSLTCTVTGYSITSDYAWNWIRQFPGNKLEWMGYISYIGGIGYNPSLKSRISITRDTSKNQFFLHLNSVTTGDTATYYCARNGAMDFWGQGISVTVSS
VL: DIVLTQSPASLAVSLGQRATISCKASQSVDYDGDSYMNWYQQKPGQPPKLLIYDASNLESGIPARFSGSGSGTDFTLNIHPVEEEDAATYYCQQSNEAPWTFGGGTKLEIKR
notes: as for B4
EC50 (read off the curve) [4]: ~0.02 µg/mL | binding result [5]: no binding (tested: 3 ug/ml)

B8: 12H10, recombinant purified, mouse IgG2a Fc (antibody)
heavy: EVQLVESGGGLVQPKGSLKLSCAASGFSFNTYAMNWVRQAPGKGLEWVARIRSKSNNYATYYADSVKDRFTISRDDSESMLYLQMNNLKTEDTAMYYCVRHGYYWYFDVWGTGTTVTVSSAKTTAPSVYPLAPVCGDTTGSSVTLGCLVKGYFPEPVTLTWNSGSLSSGVHTFPAVLQSDLYTLSSSVTVTSSTWPSQSITCNVAHPASSTKVDKKIEPRGPTIKPCPPCKCPAPNLLGGPSVFIFPPKIKDVLMISLSPIVTCVVVDVSEDDPDVQISWFVNNVEVHTAQTQTHREDYNSTLRVVSALPIQHQDWMSGKEFKCKVNNKDLPAPIERTISKPKGSVRAPQVYVLPPPEEEMTKKQVTLTCMVTDFMPEDIYVEWTNNGKTELNYKNTEPVLDSDGSYFMYSKLRVEKKNWVERNSYSCSVVHEGLHNHHTTKSFSRTPGK
light: DVLMTQTPLSLPVSLGDQASISCRSSQSIVHSDGNTYLEWYLQKPGQSPKLLIYRVSNRFSGVPDRFSGSGSGTDFTLKISRVEAEDLGVYYCFQGSHVPYTFGGGTKLEIKRADAAPTVSIFPPSSEQLTSGGASVVCFLNNFYPKDINVKWKIDGSERQNGVLNSWTDQDSKDSTYSMSSTLTLTKDEYERHNSYTCEATHKTSTSPIVKSFNRNEC
notes: as for B1
EC50 (read off the curve) [7]: ~0.04 µg/mL | EC50 (read off the curve) [8]: ~0.02 µg/mL

B9: 14A11, mouse IgG2a Fc version (antibody)
heavy: QITLKESGPGILQSSQTLSLTCSFSGVSLTTSGMGVSWIRQPSGKGLEWLAHIYWDDEKHYHPSLKSRLTISKDASRNQVFFRILSVDTADTATYYCALRYYGYRSFMDYWGQGTSVTVSSAKTTAPSVYPLAPVCGDTTGSSVTLGCLVKGYFPEPVTLTWNSGSLSSGVHTFPAVLQSDLYTLSSSVTVTSSTWPSQSITCNVAHPASSTKVDKKIEPRGPTIKPCPPCKCPAPNLLGGPSVFIFPPKIKDVLMISLSPIVTCVVVDVSEDDPDVQISWFVNNVEVHTAQTQTHREDYNSTLRVVSALPIQHQDWMSGKEFKCKVNNKDLPAPIERTISKPKGSVRAPQVYVLPPPEEEMTKKQVTLTCMVTDFMPEDIYVEWTNNGKTELNYKNTEPVLDSDGSYFMYSKLRVEKKNWVERNSYSCSVVHEGLHNHHTTKSFSRTPGK
light: DVLMTQSPLSLPVSLGDQASIFCRSNQSIVHSNGNTYFEWYLQKPGQSPKLLIYKVSNRFSGVPDRFSGSGSGTDFTLRISRVEAEDLGIYYCFQGSHVPPTFGGGTKLEIKRADAAPTVSIFPPSSEQLTSGGASVVCFLNNFYPKDINVKWKIDGSERQNGVLNSWTDQDSKDSTYSMSSTLTLTKDEYERHNSYTCEATHKTSTSPIVKSFNRNEC
notes: Recombinant, mouse IgG2a and mouse kappa constant regions; also called mAb 14A11; detection antibody 14A11 (anti-human/cyno mature-Factor D-specific)
EC50 (read off the curve) [9]: ~0.02 µg/mL | EC50 (read off the curve) [10]: ~0.04 µg/mL | EC50 (read off the curve) [11]: ~0.08 µg/mL | EC50 (read off the curve) [12]: ~0.03 µg/mL | EC50 (read off the curve) [13]: ~0.06 µg/mL | EC50 (read off the curve) [14]: ~0.04 µg/mL | EC50 (read off the curve) [15]: ~0.06 µg/mL
